From paper PMC3223204, “Implantation Serine Proteinase 1 Exhibits Mixed Substrate Specificity that Silences Signaling via Proteinase-Activated Receptors” (PLoS ONE, 2011)
No end group written: not given here.

Biological target: T1, purified recombinant ISP1 (Mus musculus, UniProt Q924N9)
T1 construct: Myc (C); His6 (C); made in house; host or cells: Pichia pastoris SMD1168
T1 sequence (Q924N9 31-274 limits assumed): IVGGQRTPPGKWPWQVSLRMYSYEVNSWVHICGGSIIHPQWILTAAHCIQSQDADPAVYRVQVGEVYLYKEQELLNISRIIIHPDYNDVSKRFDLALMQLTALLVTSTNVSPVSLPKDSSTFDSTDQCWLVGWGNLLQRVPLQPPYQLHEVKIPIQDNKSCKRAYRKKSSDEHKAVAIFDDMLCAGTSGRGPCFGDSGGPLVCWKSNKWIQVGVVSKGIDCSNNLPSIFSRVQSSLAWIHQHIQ
Test: In vitro cleavage of synthetic peptides by ISP1 (HPLC, MALDI-TOF)
Type: biochemical
Conditions: for Cleavage of synthetic peptide by ISP1: 37°C, up to overnight, HPLC; for ISP1 cleavage site in synthetic peptide: MALDI-TOF / amino acid analysis / ES-MS
Procedure: Synthetic peptides (1 mg/ml) diluted in 25 mM Tris.Cl (pH 7.8) were incubated with 2.0 units of purified recombinant ISP1 (total volume of reaction mixture: 0.5 ml) at 37°C overnight. The reaction was terminated by the addition of 0.1% trifluoroacetic acid and the mixture was separated using HPLC with an acetonitrile gradient in 0.1% v/v trifluoroacetic acid. The positions of the hydrolysis products monitored by ultraviolet absorption (E215) were compared to the elution position of the intact peptide. The masses of the individual peaks (E215) were determined by MALDI-TOF mass spectroscopy and were used to deduce the predicted amino acid sequences, based on the parent peptide sequence (amino acids are abbreviated by their one-letter codes, e.g., A = alanine, R = arginine). Except where indicated, all chemical reagents were from VWR International (Mississauga, ON, Canada).
The rat PAR2 sequence representing the cleavage/activation domain (^30 GPNSKGR/ SLIGRLDT ^45P: tethered ligand sequence, underlined), the 27-mer synthetic sequence derived from the N-terminal residues […] of rat PAR2 (I^48 […] ^74) and a 17-mer synthetic peptide sequence derived from extracellular loop 2 of rat PAR2 (V^229 LPEEVLVGDMFSYFLS ^245) were selected for the proteolysis studies. […] The 17-mer ^229–245PAR2 sequence is the potential binding site of the activating peptide. […] These peptides at a concentration of 100 µM were incubated with implantation serine proteinase 1 for varying times up to overnight at 37°C. The incubation buffers were identical to the buffers used for the measurements of enzymatic activities using AMC-substituted peptide substrates. Reactions were terminated either by rapid freezing in liquid nitrogen or by the addition to the proteolysis sample of 2 volumes of a “stop solution” comprising 50% acetonitrile and 0.1% trifluoroacetic acid in water. Samples were either subjected immediately to HPLC analysis, with collection of the E215 peak fractions, or were stored at −80°C for further processing. The cleavage products in peaks of absorption resolved by HPLC were quantified (E215), collected and their identity was established by mass spectral MALDI analysis. Some of the peaks recovered from the HPLC columns, but not ascertained by mass spectral analysis (MALDI-TOF), were identified by total amino acid analysis. Analyses were done at the Southern Alberta Mass Spectrometry Facility at the University of Calgary, Faculty of Medicine (Calgary, Alberta, Canada).

Substance | Cleavage of synthetic peptide by ISP1 | ISP1 cleavage site in synthetic peptide
ITGKGAPVEPGFSVDEFSASVLTGKLT-NH2 [27 mer peptide] | successfully cleaved | between an alanine (P1 sub site) residue and a serine (P1′ sub site) residue
RRFYIQ-NH2 | cleaved by ISP1 | –
VLPEEVLVGDMFSYFLS [17-mer synthetic peptide, derived from the extracellular loop 2 domain of rat PAR2] | successfully cleaved | between a tyrosine (P1 sub site) residue and a phenylalanine (P1′ sub site) residue; a phenylalanine (P1 sub site) and a leucine (P1′ sub site) residue; a leucine (P1 sub site) and a serine (P1′ sub site) residue
cleavage/activation sequence of PAR2: sequence representing the cleavage/activation site of rat PAR2 (30 GPNSKGR/ SLIGRLDT 45P) (GPNSKGRSLIGRLDTP; UniProt Q63645 30-45, looked up, fragment) | not cleaved | –
